US9200045B2, “Small molecule-dependent inteins and uses thereof” (President and Fellows of Harvard College, priority 2011, dated 2015)
Residue numbers refer to the chain shown, from its start.

B1: 3-2: previously evolved parental 4-HT-dependent intein, derived from the 2-4 intein (protein)
chain: CLAEGTRIFDPVTGTTHRIEDVVDGRKPIHVVAVAKDGTLLARPVVSWFDQGTRDVIGLRIAGGAIVWATPDHKVLTEYGWRAAGELRKGDRVAGPGGSGNSLALSLTADQMVSALLDAEPPILYSEYDPTSPFSEASMMGLLTNLADRELVHMINWAKRVPGFVDLTLHDQAHLLECAWLEILMIGLVWRSMEHPGKLLFAPNLLLDRNQGKCVEGMVEIFDMLLATSSRFRMMNLQGEEFVCLKSIILLNSGVYTFLSSTLKSLEEKDHIHRALDKITDTLIHLMAKAGLTLQQQHQRLAQLLLILSHIRHMSNKGMEHLYSMKYTNVVPLYDLLLEMLDAHRLHAGGSGASRVQAFADALDDKFLHDMLAEELRYSVIREVLPTRRARTFDLEVEELHTLVAEGVVVHNC
B2: 37R3-2: evolved 4-HT-dependent intein, clone from 37° C. evolution, Round 3 (protein)
chain: B1 chain with V34A, I66T, C178R, T328K

What was measured:
GFP [1] = conditions: yeast
Gli3T = assay: 4-HT-dependent intein splicing in the Gli3T context in HEK293 cells; type: cell-based, human; conditions: 1 μM 4-HT
Excerpt: (§1) p3XFlag-CMV-14 (Sigma) vectors with Gli1-intein (2-4 and 3-2), and Gli3T-intein (2-4 and 3-2) sequences were previously described (Yuen et al., 2006). p3XFlag-CMV-14 mCherry-intein (2-4 and 3-2) vectors were constructed by cloning the 2-4 and 3-2 intein sequences into the pRSET-B mCherry vector provided by Professor Roger Tsien (University of California at San Diego). The mCherry-intein 2-4 and mCherry-intein 3-2 sequences were then amplified using oligonucleotides introducing a 5′ EcoRI site and a 3′ BamHI site and ligated into EcoRI- and BamHI-digested p3XFlag-CMV-14 vector. 30R3-1 intein sequence and 37R3-2 intein sequence were amplified using the following oligonucleotides compatible with mCherry, Gli1, or Gli3 contexts.

GFP [2] = conditions: HEK293, 37° C.
Gli1 = assay: 4-HT-dependent intein splicing in the Gli1 context in HEK293 cells; type: cell-based, human; conditions: 1 μM 4-HT
Excerpt: as §1

[3] = tested on: GFP, mCherry, Gli1, and Gli3T; assay: Intein splicing across all four proteins tested in mammalian cells; conditions: no 4-HT
Description: Western blots were performed using Nu-PAGE 12% Bis-Tris gels (Invitrogen) in 3-(Nmorpholino) propanesulfonic acid (MOPS)-sodium dodecyl sulfate (SDS) buffer (Invitrogen). SDSpolyacrylamide gel electrophoresis (PAGE) and Western blotting were performed using standard protocols. Gels were transferred onto polyvinylidene fluoride (PDVF) membranes (Millipore). Western blots were processed using a mouse anti-FLAG antibody (Sigma) as the primary antibody and a secondary Alexa Fluor 800-conjugated goat anti-mouse antibody (Li-cor Biosciences), then visualized and quantitated using an Odyssey imager (Li-cor Biosciences). […]
The inteins were inserted into mCherry, a red fluorescent protein, in place of Thr 113, the residue in mCherry that corresponds to the Cys residue used for intein insertion in GFP. As in the case of GFP, this placement positions the intein near the mid-point of a β-strand and abolishes mCherry fluorescence until splicing takes place (vide infra). […]
The splicing characteristics of the newly evolved inteins was investigated in the contexts of two additional mammalian proteins, Gli1 and Gli3T. […] The resulting constructs were introduced into HEK293 cells and splicing was evaluated by Western blot as described above.

mCherry = assay: 4-HT-dependent intein splicing in the mCherry context in HEK293 cells; type: cell-based, human; conditions: for spliced mCherry protein: HEK293, 37° C., 1 μM 4-HT
Excerpt: as §1
HEK293 cells were grown in 10 cm dishes or 6-well plates and transfected with relevant mammalian vectors using Effectene. After growth in the absence of 4-HT or in the presence of 1 μM 4-HT for 24 hours, cells were trypsinized and resuspended in 500 μL of phosphate buffered saline with 1% FBS and 75 U/mL DNase (New England Biolabs). Cell fluorescence analysis was carried out on a BD LSRII cell analyzer.

[4] = HEK293, at 24 hours or 12 hours

Molecule	splicing in the absence of 4-HT (background splicing) (GFP [1]; 30° C., after 24 hours, no 4-HT) [%]	spliced protein (GFP [1]; 37° C., 1 hour after 4-HT treatment)	spliced Gli3T protein (Gli3T; HEK293, after 12 hours) [%]	spliced Gli3T protein (Gli3T; HEK293, after 24 hours) [%]	fraction of the total spliced GFP after 24 hours that was present after 12 hours (GFP [2]; 1 μM 4-HT) [%]	spliced GFP (GFP [2]; after 24 hours, 1 μM 4-HT) [%]	Gli1 protein spliced (Gli1; HEK293, after 12 hours) [%]	Gli1 protein spliced (Gli1; HEK293, after 24 hours) [%]	background splicing in the absence of 4-HT [3]	background splicing in the absence of 4-HT (GFP [2]; GFP context, no 4-HT)	fold higher GFP splicing efficiency than the original 2-4 intein (GFP [2]; after 24 hours, 1 μM 4-HT) [fold]	fold higher GFP splicing efficiency than the original 3-2 intein (GFP [2]; after 24 hours, 1 μM 4-HT) [fold]	spliced mCherry protein (mCherry; after 12 hours) [%]	spliced mCherry protein (mCherry; after 24 hours) [%]	fold higher percentage of spliced mCherry than that of 3-2 intein (mCherry; [4]) [fold]	fold higher percentage of spliced mCherry than that of the 2-4 intein (mCherry; [4]) [fold]
B1	15	did not generate significant amounts of spliced protein	10	18	45	33	22	32								
B2						73			very low and often was not detectable	not observed	3.8	2.2	43	72	~3	~5
